We go through 17 molecules from patent US20160333095A1 (Genmab, published 2016).

The target in assay [1] is T1, cynomolgus CD3 (cynomolgus monkey, UniProt Q95LI5 22-198).
T1 construct: also called CD3 on the cynomolgus T-cell line HSC-F; cynomolgus CD3ε (epsilon)
Briefly: flow cytometry on HSC-F cells, FIG. 2A. Here is the method: (§1) In addition to the non-activating mutations, LFLEDA, the antibody variants contained F405L or K409R mutations as described in Example 1.
(§2) Cells (1×10⁵ cells/well) were incubated in polystyrene 96-well round-bottom plates (Greiner bio-one 650101) with serial dilutions of antibody preparations (range 5 to 10,000 ng/mL in 3-fold dilutions) in 100 μL PBS/0.1% BSA/0.02% azide at 4° C. for 30 min.
(§3) After washing twice in PBS/0.1% BSA/0.02% azide, cells were incubated in 100 μL with secondary antibody at 4° C. for 30 min. As a secondary antibody, R-Phycoerythrin (PE)-conjugated goat-anti-human IgG F(ab′)2 (109-116-098, Jackson ImmunoResearch Laboratories, Inc., West Grove, Pa.) diluted 1/100 in PBS/0.1% BSA/0.02% azide, was used for all experiments. Next, cells were washed twice in PBS/0.1% BSA/0.02% azide, re-suspended in 150 μL PBS/0.1% BSA/0.02% azide and analyzed on a FACS Cantoll (BD Biosciences). Binding curves were analyzed using non-linear regression (sigmoidal dose-response with variable slope) using GraphPad Prism V 5.04 software (GraphPad Software, San Diego, Calif., USA).
Background: A flow cytometer gives signals particle by particle.

In assay [2] the target is T1, cynomolgus CD3. Briefly: flow cytometry on HSC-F cells, FIG. 7B. On the procedure: as §1, §2, §3
Assay [3] addresses T1, cynomolgus CD3. The assay is described as follows: flow cytometry on HSC-F cells, FIG. 7A. On the procedure: as §1, §2, §3

T1 sequence (Q95LI5 22-198): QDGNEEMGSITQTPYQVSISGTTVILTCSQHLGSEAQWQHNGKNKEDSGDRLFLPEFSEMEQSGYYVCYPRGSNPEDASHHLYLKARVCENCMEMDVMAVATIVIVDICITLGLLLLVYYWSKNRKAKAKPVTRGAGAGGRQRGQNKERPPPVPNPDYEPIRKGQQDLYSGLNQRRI

B1: IgG1-huCD3-H1L1 (antibody, V domains shown)
VH: EVKLVESGGGLVQPGGSLRLSCAASGFTFNTYAMNWVRQAPGKGLEWVARIRSKYNNYATYYADSVKDRFTISRDDSKSSLYLQMNNLKTEDTAMYYCVRHGNFGNSYVSWFAYWGQGTLVTVSS
VL: not shown
notes: IgG1,λ with wild-type Fc region
Consider B1, for which the binding result in assay [1] is listed as “binds”.

B2: IgG1-CD3-LFLEDA (antibody, V domains shown)
VH: EVKLLESGGGLVQPKGSLKLSCAASGFTFNTYAMNWVRQAPGKGLEWVARIRSKYNNYATYYADSVKDRFTISRDDSQSILYLQMNNLKTEDTAMYYCVRHGNFGNSYVSWFAYWGQGTLVTVSA
VL: QAVVTQESALTTSPGETVTLTCRSSTGAVTTSNYANWVQEKPDHLFTGLIGGTNKRAPGVPARFSGSLIGDKAALTITGAQTEDEAIYFCALWYSNLWVFGGGTKLTVL
notes: also called chimeric, parental CD3 antibody
B2: the binding result in assay [1] is “binds”.

B3: IgG1-huCD3-H3L3 (antibody, V domains shown)
VH: EVKLVESGGGLVKPGRSLRLSCAASGFTFNTYAMNWVRQAPGKGLEWVARIRSKYNNYATYYADSVKDRFTISRDDSKSILYLQMNSLKTEDTAMYYCVRHGNFGNSYVSWFAYWGQGTLVTVSS
VL: QAVVTQEPSFSVSPGGTVTLTCRSSTGAVTTSNYANWVQQTPGQAFRGLIGGTNKRAPGVPARFSGSILGNKAALTITGAQADDESDYYCALWYSNLWVFGGGTKLTVL
notes: as for B1
For the molecule B3, in assay [1], the binding result was “binds”.

B4: bsIgG1-huCD3-H4L3×HER2-LFLEDA (bispecific antibody, V domains shown)
VH 1: EVKLVESGGGLVKPGRSLRLSCAASGFTFNTYAMNWVRQAPGKGLEWVARIRSKYNNYATYYADSVKDRFTISRDDSKSILYLQMNSLKTEDTAMYYCVRHGNFGNSYVSWFAYWGQGTMVTVSS
VL 1: QAVVTQEPSFSVSPGGTVTLTCRSSTGAVTTSNYANWVQQTPGQAFRGLIGGTNKRAPGVPARFSGSILGNKAALTITGAQADDESDYYCALWYSNLWVFGGGTKLTVL
VH 2: QVQLVQSGAEVKKPGASVKVSCKASGYTFTNYGISWVRQAPGQGLEWMGWLSAYSGNTIYAQKLQGRVTMTTDTSTTTAYMELRSLRSDDTAVYYCARDRIVVRPDYFDYWGQGTLVTVSS
VL 2: EIVLTQSPATLSLSPGERATLSCRASQSVSSYLAWYQQKPGQAPRLLIYDASNRATGIPARFSGSGSGTDFTLTISSLEPEDFAVYYCQQRSNWPRTFGQGTKVEIK
notes: LFLEDA = L234F/L235E/D265A
On to B4, for which, in assay [2], the binding result is “binds”.

B5: IgG1-huCD3-H4L3-LFLEDA (antibody, V domains shown)
VH: EVKLVESGGGLVKPGRSLRLSCAASGFTFNTYAMNWVRQAPGKGLEWVARIRSKYNNYATYYADSVKDRFTISRDDSKSILYLQMNSLKTEDTAMYYCVRHGNFGNSYVSWFAYWGQGTMVTVSS
VL: QAVVTQEPSFSVSPGGTVTLTCRSSTGAVTTSNYANWVQQTPGQAFRGLIGGTNKRAPGVPARFSGSILGNKAALTITGAQADDESDYYCALWYSNLWVFGGGTKLTVL
B5: in assay [3], the binding result is recorded as “binds”.

B6: IgG1-huCD3-H4L1 (antibody, V domains shown)
VH: EVKLVESGGGLVKPGRSLRLSCAASGFTFNTYAMNWVRQAPGKGLEWVARIRSKYNNYATYYADSVKDRFTISRDDSKSILYLQMNSLKTEDTAMYYCVRHGNFGNSYVSWFAYWGQGTMVTVSS
VL: not shown
notes: as for B1
As to B6, the binding result in assay [1] is given as “binds”.

B7: IgG1-huCD3-H3L1-LFLEDA (antibody, V domains shown)
VH: EVKLVESGGGLVKPGRSLRLSCAASGFTFNTYAMNWVRQAPGKGLEWVARIRSKYNNYATYYADSVKDRFTISRDDSKSILYLQMNSLKTEDTAMYYCVRHGNFGNSYVSWFAYWGQGTLVTVSS
VL: not shown
As to B7, in assay [1], the binding result is listed as “binds”.

B8: IgG1-huCD3-H1L3 (antibody, V domains shown)
VH: EVKLVESGGGLVQPGGSLRLSCAASGFTFNTYAMNWVRQAPGKGLEWVARIRSKYNNYATYYADSVKDRFTISRDDSKSSLYLQMNNLKTEDTAMYYCVRHGNFGNSYVSWFAYWGQGTLVTVSS
VL: QAVVTQEPSFSVSPGGTVTLTCRSSTGAVTTSNYANWVQQTPGQAFRGLIGGTNKRAPGVPARFSGSILGNKAALTITGAQADDESDYYCALWYSNLWVFGGGTKLTVL
notes: as for B1
For B8, in assay [1], the binding result was “binds”.

B9: IgG1-huCD3-H4L1-LFLEDA (antibody, V domains shown)
VH: EVKLVESGGGLVKPGRSLRLSCAASGFTFNTYAMNWVRQAPGKGLEWVARIRSKYNNYATYYADSVKDRFTISRDDSKSILYLQMNSLKTEDTAMYYCVRHGNFGNSYVSWFAYWGQGTMVTVSS
VL: not shown
Take B9: the binding result in assay [3] is given as “binds”.

B10: IgG1-huCD3-H1L1-LFLEDA (antibody, V domains shown)
VH: EVKLVESGGGLVQPGGSLRLSCAASGFTFNTYAMNWVRQAPGKGLEWVARIRSKYNNYATYYADSVKDRFTISRDDSKSSLYLQMNNLKTEDTAMYYCVRHGNFGNSYVSWFAYWGQGTLVTVSS
VL: not shown
notes: also called IgG1-3huCD3-H1L1-LFLEDA; wild type IgG1-huCD3-H1L1-LFLEDA
B10: the binding result in assay [3] is on record as “binds”.

B11: bsIgG1-huCD3-H1L3×HER2-LFLEDA (bispecific antibody, V domains shown)
VH 1: EVKLVESGGGLVQPGGSLRLSCAASGFTFNTYAMNWVRQAPGKGLEWVARIRSKYNNYATYYADSVKDRFTISRDDSKSSLYLQMNNLKTEDTAMYYCVRHGNFGNSYVSWFAYWGQGTLVTVSS
VL 1: QAVVTQEPSFSVSPGGTVTLTCRSSTGAVTTSNYANWVQQTPGQAFRGLIGGTNKRAPGVPARFSGSILGNKAALTITGAQADDESDYYCALWYSNLWVFGGGTKLTVL
VH 2: QVQLVQSGAEVKKPGASVKVSCKASGYTFTNYGISWVRQAPGQGLEWMGWLSAYSGNTIYAQKLQGRVTMTTDTSTTTAYMELRSLRSDDTAVYYCARDRIVVRPDYFDYWGQGTLVTVSS
VL 2: EIVLTQSPATLSLSPGERATLSCRASQSVSSYLAWYQQKPGQAPRLLIYDASNRATGIPARFSGSGSGTDFTLTISSLEPEDFAVYYCQQRSNWPRTFGQGTKVEIK
notes: LFLEDA = L234F/L235E/D265A
As for B11, the binding result in assay [2] is “binds”.

B12: IgG1-huCD3-H3L3-LFLEDA (antibody, V domains shown)
VH: EVKLVESGGGLVKPGRSLRLSCAASGFTFNTYAMNWVRQAPGKGLEWVARIRSKYNNYATYYADSVKDRFTISRDDSKSILYLQMNSLKTEDTAMYYCVRHGNFGNSYVSWFAYWGQGTLVTVSS
VL: QAVVTQEPSFSVSPGGTVTLTCRSSTGAVTTSNYANWVQQTPGQAFRGLIGGTNKRAPGVPARFSGSILGNKAALTITGAQADDESDYYCALWYSNLWVFGGGTKLTVL
In the case of B12, in assay [3], the binding result was “binds”.

B13: IgG1-huCD3-H1L2 (antibody, V domains shown)
VH: EVKLVESGGGLVQPGGSLRLSCAASGFTFNTYAMNWVRQAPGKGLEWVARIRSKYNNYATYYADSVKDRFTISRDDSKSSLYLQMNNLKTEDTAMYYCVRHGNFGNSYVSWFAYWGQGTLVTVSS
VL: QAVVTQEPSFSVSPGGTVTLTCRSSTGAVTTSNYANWVQQTPGQAFRGLIGGTNKRAPGVPARFSGSILGNKAALTITGAQADDESIYFCALWYSNLWVFGGGTKLTVL
notes: as for B1
As for B13, the binding result in assay [1] is listed as “binds”.

B14: bsIgG1-huCD3-H1L1×HER2-LFLEDA (bispecific antibody, V domains shown)
VH 1: EVKLVESGGGLVQPGGSLRLSCAASGFTFNTYAMNWVRQAPGKGLEWVARIRSKYNNYATYYADSVKDRFTISRDDSKSSLYLQMNNLKTEDTAMYYCVRHGNFGNSYVSWFAYWGQGTLVTVSS
VL 1: not shown
VH 2: QVQLVQSGAEVKKPGASVKVSCKASGYTFTNYGISWVRQAPGQGLEWMGWLSAYSGNTIYAQKLQGRVTMTTDTSTTTAYMELRSLRSDDTAVYYCARDRIVVRPDYFDYWGQGTLVTVSS
VL 2: EIVLTQSPATLSLSPGERATLSCRASQSVSSYLAWYQQKPGQAPRLLIYDASNRATGIPARFSGSGSGTDFTLTISSLEPEDFAVYYCQQRSNWPRTFGQGTKVEIK
notes: LFLEDA = L234F/L235E/D265A
B14: the binding result in assay [2] was “binds”.

B15: bsIgG1-huCD3-H4L1×HER2-LFLEDA (bispecific antibody, V domains shown)
VH 1: EVKLVESGGGLVKPGRSLRLSCAASGFTFNTYAMNWVRQAPGKGLEWVARIRSKYNNYATYYADSVKDRFTISRDDSKSILYLQMNSLKTEDTAMYYCVRHGNFGNSYVSWFAYWGQGTMVTVSS
VL 1: not shown
VH 2: QVQLVQSGAEVKKPGASVKVSCKASGYTFTNYGISWVRQAPGQGLEWMGWLSAYSGNTIYAQKLQGRVTMTTDTSTTTAYMELRSLRSDDTAVYYCARDRIVVRPDYFDYWGQGTLVTVSS
VL 2: EIVLTQSPATLSLSPGERATLSCRASQSVSSYLAWYQQKPGQAPRLLIYDASNRATGIPARFSGSGSGTDFTLTISSLEPEDFAVYYCQQRSNWPRTFGQGTKVEIK
notes: LFLEDA = L234F/L235E/D265A
On to B15, for which the binding result in assay [2] is reported as “binds”.

B16: IgG1-huCD3-H1L3-LFLEDA (antibody, V domains shown)
VH: EVKLVESGGGLVQPGGSLRLSCAASGFTFNTYAMNWVRQAPGKGLEWVARIRSKYNNYATYYADSVKDRFTISRDDSKSSLYLQMNNLKTEDTAMYYCVRHGNFGNSYVSWFAYWGQGTLVTVSS
VL: QAVVTQEPSFSVSPGGTVTLTCRSSTGAVTTSNYANWVQQTPGQAFRGLIGGTNKRAPGVPARFSGSILGNKAALTITGAQADDESDYYCALWYSNLWVFGGGTKLTVL
B16: the binding result in assay [3] is “binds”.

B17: bsIgG1-huCD3-H3L3×HER2-LFLEDA (bispecific antibody, V domains shown)
VH 1: EVKLVESGGGLVKPGRSLRLSCAASGFTFNTYAMNWVRQAPGKGLEWVARIRSKYNNYATYYADSVKDRFTISRDDSKSILYLQMNSLKTEDTAMYYCVRHGNFGNSYVSWFAYWGQGTLVTVSS
VL 1: QAVVTQEPSFSVSPGGTVTLTCRSSTGAVTTSNYANWVQQTPGQAFRGLIGGTNKRAPGVPARFSGSILGNKAALTITGAQADDESDYYCALWYSNLWVFGGGTKLTVL
VH 2: QVQLVQSGAEVKKPGASVKVSCKASGYTFTNYGISWVRQAPGQGLEWMGWLSAYSGNTIYAQKLQGRVTMTTDTSTTTAYMELRSLRSDDTAVYYCARDRIVVRPDYFDYWGQGTLVTVSS
VL 2: EIVLTQSPATLSLSPGERATLSCRASQSVSSYLAWYQQKPGQAPRLLIYDASNRATGIPARFSGSGSGTDFTLTISSLEPEDFAVYYCQQRSNWPRTFGQGTKVEIK
notes: LFLEDA = L234F/L235E/D265A
For B17, the binding result in assay [2] is reported as “binds”.
